This data set concerns CN[C@@H]1[C@H](O)[C@H](NC)[C@H]2O[C@@]3(O)C(=O)C[C@@H](C)O[C@H]3O[C@@H]2[C@H]1O. Description: purified protein. The note with it: 5 mM ATP, 10 mM MgCl2, 50 mM HEPES pH 7.5, 37°C.

In the case of ANT(9)-Ib (Enterococcus faecalis), the Km is 33.56 ± 8.1 µM, the kcat is 2.6 ± 0.2 s⁻¹ and the kcat/Km was 83000 ± 21000 M⁻¹ s⁻¹.

(Values after publication PMC10269693.)
